Laboratory results as given in US20090068164 (published 2009).

What was measured:
[1] = target: LacA-Zif268 + PE1A-LacB (split beta-lactamase SEER pair) (artificial, UniProt O73693; SEQ:189-286,SEQ:1-88); assay: split beta-lactamase reassembly on cognate target
[2] = target: NGFP-Zif268 + CGFP-MBD2 (human MBD2 residues 147-215; mCpG-SEER pair) (artificial, UniProt P08046;Q9UBB5 P08046:333-419,Q9UBB5:147-215); assay: split GFP reassembly; used as reference (relative fluorescence 1) for specificity set; Zn buffer, 4 C

Row | Binder | binding result [1] | binding result [2]
1 | Zif-0-PE1A (structured_DNA) DNA: GGCGTTATTTATCGCCCACGCGGGTTTTCCCGCGTGGGCGATAAATAACGCC | binds | 
2 | mCpG-Zif268 (dsDNA, 5mC at the CpG on both strands (GTAmCGTA)) DNA 1: GCGTACGTAGGACGATACGCCCACGCCACCG DNA 2: CGGTGGCGTGGGCGTATCGTCCTACGTACGC |  | binds
